This is an account of results in patent US20150368316A1 (ALBERT EINSTEIN COLLEGE OF MEDICINE OF YESHIVA UNIVERSITY, published 2015).

In general, Kd refers to a measure of binding affinity in units of concentration.

Test in all cases: Kd from fitting (SPR)
Experiment [1] has as its target T1, mouse PD-L2-Ig (mouse, UniProt Q9WUL5 20-219).
T1 construct: also called mPD-L2-Ig; not shown: Ig part of the fusion
T1 sequence (looked up): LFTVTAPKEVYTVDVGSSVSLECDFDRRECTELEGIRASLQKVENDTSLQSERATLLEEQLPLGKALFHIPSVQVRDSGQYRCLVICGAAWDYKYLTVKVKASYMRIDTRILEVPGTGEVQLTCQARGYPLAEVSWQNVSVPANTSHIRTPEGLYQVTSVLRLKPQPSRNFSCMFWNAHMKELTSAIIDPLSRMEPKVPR

The target of experiment [2] is T2, human PD-L2-Ig (immobilized) (human, UniProt Q9BQ51 20-219).
T2 construct: also called huPD-L2; huPD-L2-Ig; not shown: Ig part of the fusion
T2 sequence (looked up): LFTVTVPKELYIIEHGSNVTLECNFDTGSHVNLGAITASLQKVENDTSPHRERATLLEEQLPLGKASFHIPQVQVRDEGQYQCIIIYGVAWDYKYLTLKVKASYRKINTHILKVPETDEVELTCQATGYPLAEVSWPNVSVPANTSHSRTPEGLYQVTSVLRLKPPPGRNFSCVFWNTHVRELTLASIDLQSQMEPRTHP

Experiment [3] has as its target T3, human PD-L1-Ig (immobilized) (human, UniProt Q9NZQ7 19-238).
T3 construct: also called huPD-L1; huPD-L1-Ig; not shown: Ig part of the fusion

For experiment [4], the target named is T4, mouse PD-L1-Ig (mouse, UniProt Q9EP73 19-238).
T4 construct: also called mPD-L1-Ig; not shown: Ig part of the fusion
T4 sequence (Q9EP73 19-238): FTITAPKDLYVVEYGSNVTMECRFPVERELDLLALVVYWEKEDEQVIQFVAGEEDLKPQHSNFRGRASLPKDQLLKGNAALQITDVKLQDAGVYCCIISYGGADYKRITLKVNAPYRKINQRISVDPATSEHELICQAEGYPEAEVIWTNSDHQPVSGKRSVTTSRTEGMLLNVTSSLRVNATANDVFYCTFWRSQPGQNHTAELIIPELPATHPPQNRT

T3 sequence (Q9NZQ7 19-238): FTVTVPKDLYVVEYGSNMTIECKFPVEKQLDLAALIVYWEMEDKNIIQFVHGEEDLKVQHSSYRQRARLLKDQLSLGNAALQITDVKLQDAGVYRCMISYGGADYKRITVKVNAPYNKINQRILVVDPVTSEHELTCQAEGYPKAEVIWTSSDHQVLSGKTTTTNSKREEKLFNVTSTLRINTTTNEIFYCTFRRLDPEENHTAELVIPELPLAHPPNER

B1: mouse PD-1 (wild type) (receptor, UniProt Q02242 34-150, looked up)
chain: SLTFYPAWLTVSEGANATFTCSLSNWSEDLMLNWNRLSPSNQTEKQAAFCNGLSQPVQDARFQIIQLPNRHDFHMNILDTRRNDSGIYLCGAISLHPKAKIEESPGAELVVTERILE
notes: also called m PD-1
B1: the Kd in experiment [1] came to 2800 nM; in experiment [2], 10700 nM; in experiment [3], 4020 nM.

B2: mouse HA PD-1 (high-affinity mutant) (receptor, UniProt Q02242 34-150, looked up)
chain: SLTFYPAWLTVSEGANATFTCSLSNWSEDLMLNWNRLSPSNQTEKQAAFCNGLSQPVQDARFQIIQLPNRHDFHMNILDTRRNDSGIYLCGAISLHPKLKIEESPGAELVVTERILE
notes: also called m HA PD-1
Turning to B2, the Kd worked out at 470 nM in experiment [1], 1180 nM in experiment [2], 2780 nM in experiment [4] and 480 nM in experiment [3].
